From patent publication US20060240570A1
Positions of bridges follow the written chain, without caps; N, C: chain ends. No end group written: not given here.

B1: phagemid CS1-31p, displayed peptide … (peptide)
peptide: CSFFYSLCYCWCS
modifications: disulfide (positions not given here); also: disulfide pairing among 4 Cys not given here, displayed on phagemid

Molecular target: unrelated control antibody
Assay: phage ELISA, 10^8 phagemid, wells coated with control mAb

Binder | ELISA (absorbance units) (absorbance units)
CSGLYPWDMFRCS (disulfide 1-12 (inferred); also: displayed on phagemid) [phagemid CS1-9p, displayed peptide …] | 0.209
CSFRYQWDMFRCS (disulfide 1-12 (inferred); also: displayed on phagemid) [phagemid CS1-11p, displayed peptide …] | 0.252
CSGLYPWDYFMCS (disulfide 1-12 (inferred); also: displayed on phagemid) [phagemid CS1-29p, displayed peptide …] | 0.125
B1 | 0.116
CSLFYLWDQDRCS (disulfide 1-12 (inferred); also: displayed on phagemid) [phagemid CS1-2p, displayed peptide …] | 0.188
CSFRYLWDQDRCS (disulfide 1-12 (inferred); also: displayed on phagemid) [phagemid CS1-6p, displayed peptide …] | 0.173

Molecular target: unrelated control antibody
Assay: phage ELISA, 10^9 phagemid, wells coated with control mAb

Binder | ELISA (absorbance units) (absorbance units)
CSGLYPWDMFRCS (disulfide 1-12 (inferred); also: displayed on phagemid) [phagemid CS1-9p, displayed peptide …] | 0.204
CSFRYQWDMFRCS (disulfide 1-12 (inferred); also: displayed on phagemid) [phagemid CS1-11p, displayed peptide …] | 0.258
CSGLYPWDYFMCS (disulfide 1-12 (inferred); also: displayed on phagemid) [phagemid CS1-29p, displayed peptide …] | 0.147
B1 | 0.118
CSLFYLWDQDRCS (disulfide 1-12 (inferred); also: displayed on phagemid) [phagemid CS1-2p, displayed peptide …] | 0.199
CSFRYLWDQDRCS (disulfide 1-12 (inferred); also: displayed on phagemid) [phagemid CS1-6p, displayed peptide …] | 0.172

Molecular target: unrelated control antibody
Assay: phage ELISA, 10^10 phagemid, wells coated with control mAb

Binder | ELISA (absorbance units) (absorbance units)
CSGLYPWDMFRCS (disulfide 1-12 (inferred); also: displayed on phagemid) [phagemid CS1-9p, displayed peptide …] | 0.213
CSFRYQWDMFRCS (disulfide 1-12 (inferred); also: displayed on phagemid) [phagemid CS1-11p, displayed peptide …] | 0.242
CSGLYPWDYFMCS (disulfide 1-12 (inferred); also: displayed on phagemid) [phagemid CS1-29p, displayed peptide …] | 0.148
B1 | 0.125
CSLFYLWDQDRCS (disulfide 1-12 (inferred); also: displayed on phagemid) [phagemid CS1-2p, displayed peptide …] | 0.228
CSFRYLWDQDRCS (disulfide 1-12 (inferred); also: displayed on phagemid) [phagemid CS1-6p, displayed peptide …] | 0.203
